Bounds are passed on as bounds.

The term IC50 denotes the point on the concentration scale where inhibition reaches its midpoint.

In this assay the test system is P. falciparum FcB1/Colombian strain. The experiment in a line: Anti-Plasmodium activity assay (dose-response, 3H-hypoxanthine incorporation), culture with human serum. It is filed as cell-based. The conditions noted are these: for IC50: culture in human red blood cells and serum, mean of independent dose-response assays, read-out: IC50 ± SD (anti-P. falciparum activity); for inhibition of P. falciparum development in vitro: standard P. falciparum cultures with serum. The protocol: The chloroquine-resistant P. falciparum FcB1/Colombian strain was used. Under the following culture conditions, the in vitro life cycle of the FcB1 strain was 48 hours. Cultures were grown in complete medium consisting of RPMI 1640 (Life Technologies, Inc.) supplemented with 11 mM glucose, 27.5 mM NaHCO3, 100 UI/mL penicillin, 100 μg/mL streptomycin, adjusted to pH 7.4 before addition of heat-inactivated human serum (A+ blood group, 8% final) or Albumax II® (0.5% final), according to the procedure of Trager and Jensen (1976). Parasites were routinely grown at 37° C. in human A+ RBCs (Red blood cells) at a 2% haematocrit and 2-6% parasitemia, in a 3% CO2, 6% O2 and 91% N2 atmosphere. Semi-synchronized cultures were established by Sorbitol (Lambros) treatment. Highly synchronized cultures (4 hour-window synchronization) were obtained by successive Plamion (Pasvol) and Sorbitol treatments. Parasitaemia and stage distribution were determined by optical examination of Diff-Quick stained culture smears. Parasitaemia (expressed in percent) is hundred times the number of parasitized erythrocytes divided by the total number of erythrocytes.
Dried preparations of the purified recombinant human sPLA2s were re-suspended at high concentration (usually 50 μM) in RPMI 0.05% BSA, and then tested individually for their capacity to inhibit the in vitro intra-erythrocytic development of P. falciparum. Dose-response assays based on ^3H-hypoxanthine incorporation by growing parasites were performed as in Guillaume et al. (2004). Radioactivity was measured with a 1450 Microbeta counter (Wallac, Perkin Elmer). Percentage of growth inhibition was calculated from the parasite-associated radioactivity compared with control without sPLA2. Values for the IC50 were determined from dose-response curves.

For “IB: recombinant human group IB secreted phospholipase A2”, the IC50 is more than 1250 nM and the “inhibition of P. falciparum development in vitro” value is listed as “non-toxic”.

With “IID: recombinant human group IID secreted phospholipase A2”, the IC50 is more than 250 nM and the “inhibition of P. falciparum development in vitro” value is listed as “non-toxic”.

B1: XIIB: recombinant human group XIIB sPLA2-like protein (protein, UniProt Q9BX93 20-195, looked up)
Group XIIB secretory …: QSDTSPDTEESYSDWGLRHLRGSFESVNSYFDSFLELLGGKNGVCQYRCRYGKAPMPRPGYKPQEPNGCGSYFLGLKVPESMDLGIPAMTKCCNQLDVCYDTCGANKYRCDAKFRWCLHSICSDLKRSLGFVSKVEAACDSLVDTVFNTVWTLGCRPFMNSQRAACICAEEEKEEL
B1: the IC50 is more than 250 nM and the “inhibition of P. falciparum development in vitro” value is on record as “non-toxic”.

B2: IIE: recombinant human group IIE secreted phospholipase A2 (protein, UniProt Q9NZK7 20-142, looked up)
Group IIE secretory …: NLVQFGVMIEKMTGKSALQYNDYGCYCGIGGSHWPVDQTDWCCHAHDCCYGRLEKLGCEPKLEKYLFSVSERGIFCAGRTTCQRLTCECDKRAALCFRRNLGTYNRKYAHYPNKLCTGPTPPC
Regarding B2, the IC50 was more than 250 nM and the “inhibition of P. falciparum development in vitro” value is reported as “non-toxic”.

B3: XIIA: recombinant human group XIIA secreted phospholipase A2 (protein, UniProt Q9BZM1 23-189, looked up)
Group XIIA secretory …: QEQAQTTDWRATLKTIRNGVHKIDTYLNAALDLLGGEDGLCQYKCSDGSKPFPRYGYKPSPPNGCGSPLFGVHLNIGIPSLTKCCNQHDRCYETCGKSKNDCDEEFQYCLSKICRDVQKTLGLTQHVQACETTVELLFDSVIHLGCKPYLDSQRAACRCHYEEKTDL
Turning to B3, the IC50 was more than 250 nM and the “inhibition of P. falciparum development in vitro” value is recorded as “non-toxic”.

B4: III: recombinant human group III secreted phospholipase A2 (protein, UniProt Q9NZ20 20-509, looked up)
Group 3 secretory …: GSPALRWYRTSCHLTKAVPGNPLGYLSFLAKDAQGLALIHARWDAHRRLQSCSWEDEPELTAAYGALCAHETAWGSFIHTPGPELQRALATLQSQWEACRALEESPAGARKKRAAGQSGVPGGGHQREKRGWTMPGTLWCGVGDSAGNSSELGVFQGPDLCCREHDRCPQNISPLQYNYGIRNYRFHTISHCDCDTRFQQCLQNQHDSISDIVGVAFFNVLEIPCFVLEEQEACVAWYWWGGCRMYGTVPLARLQPRTFYNASWSSRATSPTPSSRSPAPPKPRQKQHLRKGPPHQKGSKRPSKANTTALQDPMVSPRLDVAPTGLQGPQGGLKPQGARWVCRSFRRHLDQCEHQIGPREIEFQLLNSAQEPLFHCNCTRRLARFLRLHSPPEVTNMLWELLGTTCFKLAPPLDCVEGKNCSRDPRAIRVSARHLRRLQQRRHQLQDKGTDERQPWPSEPLRGPMSFYNQCLQLTQAARRPDRQQKSWSQ
Take B4: the “inhibition of P. falciparum development in vitro” value was “non-toxic”.

For the origin of these results see patent US8709741B2, “Methods of diagnosing a plasmodium infection” (priority 2009, dated 2014).
